Laboratory results from article PMC12363979 (International Journal of Nanomedicine, 2025).

Legend:
[1] = target: T1, DS2-I53-50 nanoparticle (DS2-I53-50A co-assembled with I53-50B) (human RSV A, Long strain (paper); …, stabilised); experiment: SPR
T1 chain: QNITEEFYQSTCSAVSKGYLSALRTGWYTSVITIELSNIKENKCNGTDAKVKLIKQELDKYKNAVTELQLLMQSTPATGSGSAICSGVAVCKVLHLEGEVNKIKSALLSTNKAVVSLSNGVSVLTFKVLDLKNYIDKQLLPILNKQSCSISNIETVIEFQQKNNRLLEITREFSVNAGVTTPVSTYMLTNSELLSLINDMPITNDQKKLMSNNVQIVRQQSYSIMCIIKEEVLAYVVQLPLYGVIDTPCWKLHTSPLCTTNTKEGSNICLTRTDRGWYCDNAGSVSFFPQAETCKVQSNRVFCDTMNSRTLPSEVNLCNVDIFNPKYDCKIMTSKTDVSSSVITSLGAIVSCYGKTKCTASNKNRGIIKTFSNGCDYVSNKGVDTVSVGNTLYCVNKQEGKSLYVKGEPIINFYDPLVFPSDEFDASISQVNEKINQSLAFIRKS

[2] = target: T2, RSV F construct DS2 (stabilized prefusion F trimer) (human RSV A, Long strain (paper); …, stabilised); experiment: SPR
T2 chain: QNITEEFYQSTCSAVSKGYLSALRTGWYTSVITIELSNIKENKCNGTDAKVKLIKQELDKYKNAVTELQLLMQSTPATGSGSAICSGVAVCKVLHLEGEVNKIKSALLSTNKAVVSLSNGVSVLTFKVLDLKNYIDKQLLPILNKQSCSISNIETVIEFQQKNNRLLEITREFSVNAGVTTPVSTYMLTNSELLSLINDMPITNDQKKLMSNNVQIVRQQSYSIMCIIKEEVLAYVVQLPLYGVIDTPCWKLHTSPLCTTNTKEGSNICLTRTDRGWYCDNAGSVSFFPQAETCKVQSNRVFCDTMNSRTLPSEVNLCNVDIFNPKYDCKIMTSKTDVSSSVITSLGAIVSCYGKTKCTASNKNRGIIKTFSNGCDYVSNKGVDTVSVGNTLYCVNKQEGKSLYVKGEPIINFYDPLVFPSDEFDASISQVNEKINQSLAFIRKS

B1: D25 monoclonal antibody (IgG) (antibody, V domains shown)
VH: QVQLVQSGAEVKKPGSSVMVSCQASGGPLRNYIINWLRQAPGQGPEWMGGIIPVLGTVHYAPKFQGRVTITADESTDTAYIHLISLRSEDTAMYYCATETALVVSTTYLPHYFDNWGQGTLVTVSS
VL: DIQMTQSPSSLSAAVGDRVTITCQASQDIVNYLNWYQQKPGKAPKLLIYVASNLETGVPSRFSGSGSGTDFSLTISSLQPEDVATYYCQQYDNLPLTFGGGTKVEIK
[1]
  kon: 1.39e+06 M⁻¹ s⁻¹
[2]
  kon: 114000 M⁻¹ s⁻¹

B2: AM14 monoclonal antibody (IgG) (antibody, V domains shown)
VH: EVQLVESGGGVVQPGRSLRLSCAASGFSFSHYAMHWVRQAPGKGLEWVAVISYDGENTYYADSVKGRFSISRDNSKNTVSLQMNSLRPEDTALYYCARDRIVDDYYYYGMDVWGQGATVTVSS
VL: DIQMTQSPSSLSASVGDRVTITCQASQDIKKYLNWYHQKPGKVPELLMHDASNLETGVPSRFSGRGSGTDFTLTISSLQPEDIGTYYCQQYDNLPPLTFGGGTKVEIK
[1]
  kon: 4.33e+06 M⁻¹ s⁻¹
[2]
  kon: 438000 M⁻¹ s⁻¹
